Measured values reported in patent US20160046725A1 (PIERRE FABRE MEDICAMENT, published 2016).
Positions count from the first letter of the chain named.

T1: monkey Axl receptor on COS7 cells (African green monkey, UniProt A0A0D9S0W1 26-894)
T1 construct: also called monkey cellular form of the Axl receptor
T1 sequence: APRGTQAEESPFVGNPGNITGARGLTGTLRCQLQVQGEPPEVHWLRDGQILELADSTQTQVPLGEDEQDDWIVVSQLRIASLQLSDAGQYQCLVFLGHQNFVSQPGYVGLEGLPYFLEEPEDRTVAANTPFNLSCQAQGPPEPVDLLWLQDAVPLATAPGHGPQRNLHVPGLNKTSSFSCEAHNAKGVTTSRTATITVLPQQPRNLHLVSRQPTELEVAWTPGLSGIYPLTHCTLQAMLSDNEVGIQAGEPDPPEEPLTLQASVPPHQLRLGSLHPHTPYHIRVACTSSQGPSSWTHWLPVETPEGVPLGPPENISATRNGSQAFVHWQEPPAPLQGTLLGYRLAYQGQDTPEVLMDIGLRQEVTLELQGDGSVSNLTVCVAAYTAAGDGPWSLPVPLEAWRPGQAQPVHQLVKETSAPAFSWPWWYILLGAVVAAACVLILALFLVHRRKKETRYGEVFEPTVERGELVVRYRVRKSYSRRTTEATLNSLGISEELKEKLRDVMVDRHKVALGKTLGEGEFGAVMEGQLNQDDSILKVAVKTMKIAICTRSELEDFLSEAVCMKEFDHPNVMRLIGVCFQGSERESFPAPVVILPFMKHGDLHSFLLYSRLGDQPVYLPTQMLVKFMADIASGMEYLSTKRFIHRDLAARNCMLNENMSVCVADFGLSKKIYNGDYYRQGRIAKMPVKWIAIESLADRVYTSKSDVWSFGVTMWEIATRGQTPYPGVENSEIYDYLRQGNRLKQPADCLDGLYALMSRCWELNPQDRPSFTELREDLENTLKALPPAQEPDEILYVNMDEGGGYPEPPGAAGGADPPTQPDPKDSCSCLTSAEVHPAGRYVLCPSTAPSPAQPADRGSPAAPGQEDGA

T2: recombinant human Axl-Fc protein (R and D Systems, cat N° 154-AL) (human, UniProt P30530 26-451)
T2 construct: Bought construct; An anti-Histidine coating control hints at a His tag, not described; also called rhAxl-Fc; rh Axl-Fc; not shown: human Fc portion of the bought fusion
T2 sequence: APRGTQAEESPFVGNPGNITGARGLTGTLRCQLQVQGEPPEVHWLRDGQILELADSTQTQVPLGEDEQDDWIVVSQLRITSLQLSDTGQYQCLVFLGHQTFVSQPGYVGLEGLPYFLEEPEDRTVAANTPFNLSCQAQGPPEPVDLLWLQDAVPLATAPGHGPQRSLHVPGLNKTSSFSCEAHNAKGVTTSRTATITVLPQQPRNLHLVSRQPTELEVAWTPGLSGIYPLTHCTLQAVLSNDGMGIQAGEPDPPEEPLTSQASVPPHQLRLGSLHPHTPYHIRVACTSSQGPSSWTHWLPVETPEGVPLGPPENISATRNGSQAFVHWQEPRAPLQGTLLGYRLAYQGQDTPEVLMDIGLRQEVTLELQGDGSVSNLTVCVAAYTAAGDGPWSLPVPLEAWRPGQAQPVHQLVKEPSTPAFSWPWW

B1: 110D7 anti-Axl monoclonal antibody (antibody, V domains shown)
VH: EVKLVESGGGLVQPGGSLKLSCATSGFTFSDYYMYWVRQTPEKRLEWVAYISNGGGSTYYPDTVKGRFTMSRDNAKNTLYLQMSRLKSEDTAMYYCARLSFYAMDYWGQGTSVTVSS
VL: DIVMTQSHKFMSTSVGDRVSITCKASQDVTTAVAWYQQKPGQSPKLLIYWASTRHTGVPDRFTGSGSGTDYTLTISSVQAEDLALYYCQQHYRIPFTFGSGTKLEIK
notes: Murine monoclonal antibody purified from a hybridoma; a mIgG1 isotype control (9G4) is used beside it; also called m110D7; monoclonal antibody 110D7 derived from the hybridoma I-3959
B2: 1003A2 anti-Axl monoclonal antibody (antibody, V domains shown)
VH: EVKLVESGGGLVQPGGSLKLSCAASGFTFNSYSMSWVRQTPEKRLEWVAYISNGGGRTYYPDTIKGRFTLSRDNDRNTLYLQMSSLKSEDTAMYYCARGTTESYYALDYWGQGTSVTVSS
VL: B1 VL with V15L, V19I, T30I, T72N, Y92F, R93S, I94T, F96L, S100A, I106L
notes: Murine monoclonal antibody purified from a hybridoma; a mIgG1 isotype control (9G4) is used beside it; also called monoclonal antibody 1003A2 derived from the hybridoma I-4499
B3: 1024G11 anti-Axl monoclonal antibody (antibody, V domains shown)
VH: B2 VH with K19N, N30S, Y50F, I64V, L70F, D75A, K87N, Y95F, L107M
VL: B1 VL with T30I, Y87F, Y92L, R93S, I94T, F96L, S100A, I106L
notes: Murine monoclonal antibody purified from a hybridoma; a mIgG1 isotype control (9G4) is used beside it; also called monoclonal antibody 1024G11 derived from the hybridoma I-4501

Molecular target: T1, monkey Axl receptor on COS7 cells
Experiment: flow cytometry titration on COS7 cells
Procedure: For 110D7, respectively 1003A2 and 1024G11, cellular binding purpose, 2·10⁵ cells were incubated with an antibody concentration range prepared by ½ serial dilution (12 points) of a 10 μg/ml (6.66 10⁻⁸ M) antibody solution of 110D7, respectively 1003A2 and 1024G11, or m9G4 (mIgG1 isotype control Mab) for 20 min at 4° C. After 3 washes in phosphate-buffered saline (PBS) supplemented with 1% BSA and 0.01% NaN₃, cells were incubated with secondary antibody goat anti-mouse Alexa 488 (dilution 1/500) for 20 minutes at 4° C. After 3 additional washes in PBS supplemented with 1% BSA and 0.1% NaN₃, cells were analyzed by FACS (Facscalibur, Becton-Dickinson). At least 5000 cells were assessed to calculate the mean value of fluorescence intensity. Data are analyzed using Prism software.

Question: With B1 as the binder, how does the “antibody concentration above which the plateau is reached” value read?
Answer: > 1000 pM

Question: How did the “antibody concentration above which the plateau is reached” value turn out when B2 was run?
Answer: > 520 pM

Question: With B3 as the binder, how does the “antibody concentration above which the plateau is reached” value read?
Answer: > 520 pM

Molecular target: T2, recombinant human Axl-Fc protein (R and …)
Experiment: competition ELISA, rhAxl-Fc on coated rhGas6 (competitor: Gas6)
Procedure: To further characterize the anti-Axl Mabs, Gas6 competition assays were performed. In this assay, the free rhAxl-Fc protein and the anti-Axl antibody are incubated to form antigen-antibody complex and then the complexes are loaded on Gas6-coated surface in the assay plate. The unbound antibody-antigen complexes are washed off before adding enzyme-linked secondary antibody against the human Fc portion of the rhAxl-Fc protein. The substrate is then added and the antigen concentration can then be determined by the signal strength elicited by the enzyme-substrate reaction.
Briefly reaction mixture comprising the rhAxl-Fc protein in presence or not of the Mabs to be tested, are prepared on a separate saturated (0.5% gelatin in PBS 1×) plate. Serial 1: 2 dilutions (starting from 80 μg/ml on 12 columns) of murine Axl antibodies (110D7, 1003A2 and 1024G11) are performed. Then 0.5 μg/ml of the rhAxl-Fc protein is added (R and D Systems, ref 154AL/CF), except to the negative control line that contains only ELISA diluant (0.1% gelatin, 0.05% Tween 20 in PBS 1×). After homogenisation, the competition samples are loaded on Gas6-coated plates with a 6 μg/ml rhGas6 solution in PBS (R and D Systems cat N° 885-GS-CS/CF). After incubation and several washes, bound rhAxl-Fc proteins are detected using a goat anti-Human IgG-HRP (Jackson, ref 109-035-098). Once bound, the TMB substrate is added to the plates. The reaction is stopped by addition of H₂SO₄ acid solution and the obtained optical densities read at 450 nm using a microplate reader instrument.

Question: B1 was tested. Which “antibody concentration above which competition with Gas6 binding occurs” value did it give?
Answer: > 16.7 nM

Question: For B2, which “antibody concentration above which competition with Gas6 binding occurs” value is on record?
Answer: > 16.7 nM

Question: Which “antibody concentration above which competition with Gas6 binding occurs” value does the source give for B3 here?
Answer: > 16.7 nM
